From patent US12344637B2, “Virus-inspired compositions and methods of redirecting preexisting immune responses using the same for treatment of cancer” (priority 2020, dated 2025)

Assays:
[1] = HPV16 L1 deletion mutants; cited from earlier work
MC38 cells [2] = assay: OVA peptide loading in the presence of furin inhibitor; format: cell-based, murine; conditions: IRC 2.5 μg/mL
Protocol: (Millipore-Sigma, St. Louis, MO). This furin inhibitor binds irreversibly to the catalytic site of furin, blocking all furin protease activity.
Briefly, 2×10^5 MC38 cells (murine colon adenocarcinoma, #ENH204-FP, Kerafast, Inc., Boston MA) were seeded in a FACs tube and then incubated with either 0.5 μM, […], or 50 μM furin inhibitor dissolved in DMSO at total final sample volume of 200 μL. Control samples containing no inhibitor were prepared the same way with the same volume equivalent of DMSO. The samples were incubated for fifteen minutes in a tissue culture incubator at 37° C., 5% CO2. Then, 2.5 μg/mL of OVA-conjugated MPV.10.34.d IRC was added to all samples and the samples were incubated in a tissue culture incubator at 37° C., 5% CO2. Samples were then washed twice with 2 to 3 mL FACS buffer and then stained with PE-conjugated-mouse anti-mouse MHC I bounded with OVA (SIINFEKL, SEQ ID NO:95) monoclonal antibody (Biolegend, Cat #141604, San Diego, CA) for 30 minutes at 4° C. Following this, samples were washed once with 3 mL FACS buffer then the cells were resuspended in 250 μL of FACS buffer before being analyzed by a CytoFLEX flow cytometer. (Beckman Coulter Life Sciences, Brea, CA, US).

[3] = Transmission electron microscopy (TEM) size and structure; format: physicochemical; conditions: purified refolded capsid backbone
Protocol: TEM analysis was also employed to obtain further visual confirmation of the structure and size of the refolded proteins. Samples (10 μL) were adsorbed to glow discharged (EMS GloQube) carbon coated 400 mesh copper grids (EMS), by floatation for 2 min. Grids were quickly blotted and then rinsed in 3 drops (1 min each) of TBS. Grids were negatively stained in 2 consecutive drops of 1% uranyl acetate with tylose (1% UAT, double filtered, 0.22 μm filter), blotted then quickly aspirated to obtain a thin layer of stain covering the sample. Grids were imaged on a Phillips CM-120 TEM operating at 80 kV with an AMT XR80 CCD (8 megapixel).

[4] = tested on: MPV.A4 monoclonal antibody; assay: ELISA with MPV.A4 conformational monoclonal antibody; format: binding
Protocol: The MPV.A4 antibody is a conformational antibody that specifically binds to MPV L1 in the form of T=1 or T=7 capsid backbone structure. This antibody will not bind to denatured or monomeric MPV L1. (Hafenstein et al., 2020, “Atomic Resolution CRYOEM structure of Mouse Papillomavirus,” International Papillomavirus Conference, Jul. 20-24, 2020). To determine whether MPV.10.34.d undergoing the steps in Example 1 or Example 4 yields a T=1 capsid backbone, ELISA was performed on these samples with the MPV.A4 monoclonal antibody.
Samples from Example 1 and Example 4 of equal concentrations (starting concentration of 1000 ng/well) were subjected to ELISA. To ensure that both soluble and refolded MPV.10.34.d were equally bound to the ELISA plate (Nunc Maxisorp, ThermoFisher Scientific, Waltham, MA, US), both samples were first buffer exchanged into either 50 mM NaPO4, 450 mM NaCl at pH 6 or pH 7. […] Based on this, a total of four sample conditions were two-fold serially diluted and subjected to ELISA with the MPV.A4 monoclonal antibody.
Briefly, eight different amounts of protein (7.8 ng to 1 μg) for each sample under both pH conditions (into either 50 mM NaPO4, 450 mM NaCl at pH 6 or pH 7) were first added to the ELISA plate and the plate was stored at 4° C. […] The absorbance of the sample plates were read at 450 nm and 620 nm with a plate reader (BioTek, Winooski, VT, US).

MC38 cells [5] = assay: In vitro cell binding assay (flow cytometry), MC38; format: cell-based, murine; conditions: MC38, 1 h 37° C.
Protocol: (§1) To assess whether IRC bind to tumor cells, an in vitro cell binding assay was conducted. Specifically, both MPV.10.34.d capsid backbones (unconjugated) as well as different conjugated IRC (human CMV pp65, murine E7, and murine OVA peptide) were examined.
(§2) Briefly, 2×10^5 MC38 cells (murine colon adenocarcinoma, #ENH204-FP Kerafast, Inc., Boston MA) or pgsA-745 cells (Chinese hamster ovary cell mutant deficient in xylosyltransferase (UDP-D-xylose:serine-1,3-D-xylosyltransferase, ATCC CRL-2242) in which heparin sulfate proteoglycan (HSPG) expression is knocked out, were seeded overnight. The next day, the cells were treated with human CMV pp65, murine HPV16 E7, and murine OVA peptide, as well as the MPV.10.34.d capsid backbone for one hour at 37° C. Cells were then washed twice with 2 to 3 mL of a fluorescence activated cell sorting (FACS) buffer (1% bovine serum albumin in PBS) and then stained with 1 mL of rabbit anti-musPsV serum antibodies for 30 minutes at 4° C. Following this, samples were washed once with 3 mL FACS buffer and stained with 0.5 mL of donkey anti-rabbit IgG-PE antibody (Biolegend, San Diego, CA) for 30 min at 4° C. in the dark. Finally, samples were washed once more with 3 mL FACS buffer and then resuspended in […] of FACS buffer before being analyzed by a CytoFLEX flow cytometer (Beckman Coulter Life Sciences, Brea, CA, US).

pgsA-745 cells = assay: In vitro cell binding assay (flow cytometry), HSPG knock-out cells; format: cell-based, Chinese hamster; conditions: pgsA-745, 1 h 37° C.
Protocol: as §1, §2

HCT116 = assay: In vitro cytotoxicity assay with human CMV T cells, HCT116; format: cell-based; conditions: HCT116, 2.5 μg/mL, E:T 10:1, 24 hrs
Protocol: (§3) In these experiments, CD8+ T cell responses to CMV peptides were tested in three different human tumor cell lines, including HCT116, OVCAR3, and MCF7. All three of these human tumor cell lines are HLA-A*0201 positive.
(§4) In Vitro Cytotoxicity Assays. […], human colon cancer cells, MCF7, human breast cancer cells, and OVCAR3, human ovarian cancer cells (all from ATCC, Manassas, VA, US) were seeded overnight at 0.01 to 0.2×10^6 per well per 100 μL per 96 well plate. The next day (about 20 to 22 hrs later), each cell line was incubated for one hour at 37° C. under the following conditions: (1) CMV peptide at a final concentration of 1 μg/mL (positive control), (2) MPV.10.34.d at a final concentration of 2.5 μg/mL (negative control), (3) CMV-conjugated MPV.10.34.d IRC at a final concentration of 2.5 μg/mL, (4) CMV-conjugated HPV16 IRC at a final concentration of 2.5 μg/mL, and (5) no antigen (negative control). After 1 hour, the cells were washed vigorously with 200 μL of media for three times to remove non-specific binding. […] Cell viability was measured after co-culturing. Cell viability was measured with CELLTITER-GLO® (Promega, Madison, WI, US). […] The amount of ATP generated from tumor cells was quantified according to manufacturer protocols.

OVCAR3 = assay: In vitro cytotoxicity assay with human CMV T cells, OVCAR3; format: cell-based; conditions: OVCAR3, 2.5 μg/mL, E:T 10:1, 24 hrs
Protocol: as §3, §4

MCF7 = assay: In vitro cytotoxicity assay with human CMV T cells, MCF7; format: cell-based; conditions: MCF7, 2.5 μg/mL, E:T 10:1, 24 hrs
Protocol: as §3, §4

[6] = ELISA of anti-MPV.10.34.d IRC sera; format: binding, mice; conditions: serum from 1:100, two-fold dilutions
Protocol: (§5) Antibodies against wild type MPV were generated as follows: New Zealand white rabbits (n=3) were administered three intra-muscular vaccinations of 50 μg of wild type mouse papillomavirus particles per dose. Rabbits were vaccinated at months 0, 1, and 2. After two weeks post final vaccination, rabbits were bled to obtain the anti-MPV sera. Antibodies against MPV.10.34.d IRC were obtained as follows: naïve 6 to 8 week old C57/BL6 mice (n=10) were injected systemically with two doses of 150 μg of E7-conjugated MPV.10.34.d over a period of 48 hours. After 48 hours, the mice were bled to obtain the anti-MPV.10.34.d IRC sera.
(§6) Specificity of anti-MPV.10.34.d IRC sera and anti-MPV sera to both MPV.10.34.d capsid backbone and MPV.10.34.d IRC was examined by ELISA. The assays were performed as described in Example 5 with the following differences: serum samples were tested at a 1:100 dilution factor and two-fold serial dilutions. Goat anti-mouse IgG-HRP secondary antibody was used in the ELISA (1:7000). Binding of anti-MPV.10.34.d IRC sera (FIG. 31) and anti-MPV scrum (data not shown) to both MPV.10.34.d capsid backbone (FIG. 31A) and MPV.10.34.d IRC (FIG. 31B) was observed.

ELISA of anti-MPV sera = format: binding, rabbits; conditions: data not shown
Protocol: as §5, §6

## ΔN = 0: HPV16 L1 protein without N-terminal deletion (Chen et al., 2000)
[1]
  Apparent Diameter of Assembled Particle (Å): 600 Å

## decanoyl-RVKR-CMKa [furin inhibitor, reference compound]
MC38 cells [2]; furin inhibitor 0.5 μM
  OVA peptide loading: prevents OVA-conjugated MPV.10.34.d IRCs from loading OVA epitopes
MC38 cells [2]; furin inhibitor 5 μM
  OVA peptide loading: prevents OVA-conjugated MPV.10.34.d IRCs from loading OVA epitopes
MC38 cells [2]; furin inhibitor 50 μM
  OVA peptide loading: prevents OVA-conjugated MPV.10.34.d IRCs from loading OVA epitopes

B1: MPV.10.34.d capsid backbone (protein)
chain: MLYLPPTTPVAKVQSTDEYVYPTSLFCHAHTDRLLTVGHPFFSVIDNDKVTVPKVSGNQYRVFRLKFPDPNKFALPQKDFYDPEKERLVWRLRGLEIGRGGPLGIGTTGHPLFNKLGDTENPNKYQQGSKDNRQNTSMDPKQTQLFIVGCEPPTGEHWDVAKPCGALEKGDCPPIQLVNSVIEDGDMCDIGFGNMNFKELQQDRSGVPLDIVSTRCKWPDFLKMTNEAYGDKMFFFGRREQVYARHFFTRNGSVGEPIPNSVSPSDFYYAPDSTQDQKTLAPSVYFGTPSGSLVSSDGQLFNRPFWLQRAQGNNNGVCWHNELFVTVVDNTRNTNFTISQQTNTPNPDTYDSTNFKNYLRHVEQFELSLIAQLCKVPLDPGVLAHINTMNPTILENWNLGFVPPKEREDPYKGLIFWEVDLTERFSQDLDQFALGRKFLYQ
[3]
  diameter (TEM): ~30 nm
[4]; refolded from IBs (Example 1)
  recognition by MPV.A4 conformational monoclonal antibody: recognized
[4]; soluble (Example 4), pH 6 or pH 7
  recognition by MPV.A4 conformational monoclonal antibody: recognized
MC38 cells [5]
  binding to tumor cells (peak shift): exhibited specificity for tumor cells
pgsA-745 cells
  binding to cells lacking HSPG expression: no binding
HCT116
  redirection of CMV pp65-specific CD8+ T-cells to kill tumor cells: no background tumor killing
OVCAR3
  redirection of CMV pp65-specific CD8+ T-cells to kill tumor cells: no background tumor killing
MCF7
  redirection of CMV pp65-specific CD8+ T-cells to kill tumor cells: no background tumor killing
[6]
  binding of anti-MPV.10.34.d IRC sera (ELISA): Binding
[6]; listed as MPV.10.34.d capsid backbones
  binding of anti-MPV.10.34.d IRC sera (ELISA): specifically recognize and bind
ELISA of anti-MPV sera
  binding of anti-MPV serum (ELISA): Binding
